Results taken from US20190100588A1 (VISTERRA, published 2019).
Changes are numbered by the printed parent chain.

Key:
Pep5 = biological target: T1, Pep5 (human); experiment: peptide binding ELISA
T1 construct: also called Peptide 5
T1 peptide: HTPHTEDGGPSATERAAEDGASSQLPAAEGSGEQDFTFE
Description: (§1) As above, the monoclonal antibodies were tested for binding to a series of CD138 peptides in four-fold serial dilutions starting at 1 μg/mL. […] HRP-conjugated anti-human IgG-Fc antibody (1:5000 dilution) was used for detection. Antibody B-B4 was also tested as a reference. […] Reference antibody B-B4 only bound to Peptide 2a.

[1] = biological target: T2, recombinant CD138 extracellular domain (soluble CD138) (human, UniProt P18827 23-250); experiment: ELISA, recombinant CD138 extracellular domain
T2 construct: also called soluble CD138 extracellular domain; biotinylated CD138
T2 sequence: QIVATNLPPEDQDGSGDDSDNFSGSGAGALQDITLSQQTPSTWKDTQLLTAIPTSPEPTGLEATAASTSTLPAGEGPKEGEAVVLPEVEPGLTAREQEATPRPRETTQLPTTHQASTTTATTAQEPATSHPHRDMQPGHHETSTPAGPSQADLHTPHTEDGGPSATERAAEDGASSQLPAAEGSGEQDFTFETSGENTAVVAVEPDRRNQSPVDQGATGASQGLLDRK
Description: (§2) Antibody B-B4 was included as a reference. Briefly, the monoclonal antibodies were tested for binding to recombinant CD138 extracellular domain consisting of amino acids 23-254 of human CD138, in four-fold serial dilutions starting at 1 μg/mL. HRP-conjugated anti-human IgG-Fc antibody (1:5000 dilution) was used for detection.

[2] = biological target: T3, cell surface CD138 (human CD138) (human, UniProt P18827 23-310); experiment: flow cytometry, U266 cells
T3 construct: whole, on cells; also called membrane CD138
T3 sequence (looked up): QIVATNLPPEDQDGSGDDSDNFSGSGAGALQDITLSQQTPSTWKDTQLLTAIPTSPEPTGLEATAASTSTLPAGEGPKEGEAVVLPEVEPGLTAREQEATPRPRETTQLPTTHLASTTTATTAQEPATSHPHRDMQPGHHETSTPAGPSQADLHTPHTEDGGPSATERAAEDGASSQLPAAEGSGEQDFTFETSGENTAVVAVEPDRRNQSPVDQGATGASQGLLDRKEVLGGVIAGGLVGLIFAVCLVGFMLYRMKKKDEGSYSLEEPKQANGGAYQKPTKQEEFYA
Description: (§3) Binding of anti-CD138 antibodies to CD138 was tested by flow cytometry binding assay. Multiple myeloma cell lines RPMI 8226 (ATCC) and U266 (ATCC) were grown in RPMI1640 with 10% FBS. On the day of experiment, 0.25×10⁶ cells were washed with FACS buffer (PBS+0.5% BSA) and incubated with dilution series of anti-CD138 antibodies (starting 10 ug/ml) or hybridoma supernatants (starting with undiluted supernatant) for 30 min at 4° C. followed by incubation with goat-anti-human/mouse conjugated APC antibodies (BioLegend) for 30 min at 4° C. Fluorescence was detected using flow cytometer.
(§4) The afucosylated antibody variants were then tested for capacity to induce ADCC, as described above.

Peptide 2a [3] = biological target: T4, Peptide 2a (human); experiment: peptide binding ELISA
T4 construct: also called Pep2a
T4 peptide: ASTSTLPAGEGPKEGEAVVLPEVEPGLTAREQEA
Description: as §1

Pep6 [4] = biological target: T5, Pep6 (human); experiment: peptide binding ELISA
T5 construct: also called Peptide 6; Peptide-6
T5 peptide: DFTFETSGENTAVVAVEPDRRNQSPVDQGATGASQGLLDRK
Description: as §1

[5] = biological target: T2, recombinant CD138 extracellular domain …; experiment: ELISA, soluble CD138
Description: as §2

Peptide 6E = biological target: T6, Peptide 6E (human, biotin at the amino terminus); experiment: bio-layer interferometry, biotinylated peptide
T6 construct: also called Pep6e
T6 peptide: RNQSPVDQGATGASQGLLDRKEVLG

Peptide 6B [6] = biological target: T7, Peptide 6B (human, biotin at the amino terminus); experiment: bio-layer interferometry, biotinylated peptide
T7 construct: also called Pep6b
T7 peptide: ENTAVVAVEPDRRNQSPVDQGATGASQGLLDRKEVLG

Peptide 2C = biological target: T8, Peptide 2C (human, biotin at the amino terminus); experiment: bio-layer interferometry, biotinylated peptide
T8 construct: also called Pep2c
T8 peptide: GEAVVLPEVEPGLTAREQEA

Peptide 6B [7] = biological target: T7, Peptide 6B; experiment: ELISA with captured antibody (FIG. 21); also bio-layer interferometry (FIG. 22A)
Description: Briefly, biotinylated peptides (Peptides 2A, 2D, 6B, and 6F; sequences shown in FIG. 22C) were used at 50 nM and captured on streptavidin capture biosensors. Antibodies were then run over the captured peptides at concentrations of 25 nM to 6.25 nM.

[8] = biological target: T3, cell surface CD138 (human CD138); experiment: flow cytometry, U266 cells, afucosylated antibody
Description: as §3, §4

Peptide 2a [9] = biological target: T4, Peptide 2a; experiment: ELISA (FIG. 18B)
[10] = biological target: T2, recombinant CD138 extracellular domain …; experiment: ELISA (FIG. 18A)
Pep6 [11] = biological target: T5, Pep6; experiment: ELISA (FIG. 18C)
mutated CD138 Clone 5 = biological target: T9, mutated CD138 Clone 5 (human, UniProt P18827 23-310); experiment: staining of Expi293 cells expressing the CD138 variant
T9 construct: Leu107, Pro108, Glu109 mutated to Ala; Expressed on Expi293 cells
T9 chain: T3 sequence (looked up) with L85A, P86A, E87A, S211L, V213E, D214V, Q215E

mutated CD138 Clone 4 = biological target: T10, mutated CD138 Clone 4 (human, UniProt P18827 23-310); experiment: as above
T10 construct: Leu107, Pro108, Glu109 mutated to Ala; Expressed on Expi293 cells
T10 chain: T3 sequence (looked up) with L85A, P86A, E87A, E204L, D206E, R207V, R208E

mutated CD138 Clone 2 = biological target: T11, mutated CD138 Clone 2 (human, UniProt P18827 23-310); experiment: as above
T11 construct: Leu107, Pro108, Glu109 mutated to Ala; Expressed on Expi293 cells
T11 chain: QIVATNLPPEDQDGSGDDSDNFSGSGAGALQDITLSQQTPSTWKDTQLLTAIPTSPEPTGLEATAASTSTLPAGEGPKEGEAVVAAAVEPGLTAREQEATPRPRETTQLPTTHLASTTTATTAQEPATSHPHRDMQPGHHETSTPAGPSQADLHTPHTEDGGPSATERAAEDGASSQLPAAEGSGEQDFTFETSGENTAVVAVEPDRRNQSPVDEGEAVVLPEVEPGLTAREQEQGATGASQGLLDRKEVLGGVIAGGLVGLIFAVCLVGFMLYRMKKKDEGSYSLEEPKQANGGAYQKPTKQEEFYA

mutated CD138 Clone 1 = biological target: T12, mutated CD138 Clone 1 (human, UniProt P18827 23-310); experiment: as above
T12 construct: Leu107, Pro108, Glu109 of the original site mutated to Ala; Expressed on Expi293 cells
T12 chain: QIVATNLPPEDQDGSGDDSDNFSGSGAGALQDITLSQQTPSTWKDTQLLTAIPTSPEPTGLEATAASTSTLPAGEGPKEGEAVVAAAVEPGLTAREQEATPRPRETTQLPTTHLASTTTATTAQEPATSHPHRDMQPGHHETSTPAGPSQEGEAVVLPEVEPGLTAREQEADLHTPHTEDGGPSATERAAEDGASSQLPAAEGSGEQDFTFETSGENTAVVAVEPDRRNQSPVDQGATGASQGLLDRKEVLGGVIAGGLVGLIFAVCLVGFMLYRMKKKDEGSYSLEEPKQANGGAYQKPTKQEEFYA

B1: antibody CD002 (antibody, V domains shown)
VH: QVQLQQPGAELVKPGASVKLSCKASGFSFITYWMNWIKQRPGRGLEWIGRIHPSDSATQYNQKFKTKATLTVDKSSSTAYIQLSSLTSEDSAVYYCARSTEGAHWGQGTLVTVSA
VL: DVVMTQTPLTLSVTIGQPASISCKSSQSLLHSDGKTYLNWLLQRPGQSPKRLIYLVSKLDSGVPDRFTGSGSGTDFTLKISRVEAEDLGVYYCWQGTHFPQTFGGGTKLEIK
- binding result (Pep5): binds
- binding result [1]: binds

B2: antibody 1610 (antibody, V domains shown)
VH: QVQLHQPGTSLVKPGASVKLSCKASGYNFSSYYMHWVKQRPGQGLEWIGTIHPSDSTTNCNQKFKGKATLTVDKSSRTAYMQLNSLTFEDSAVYYCANFVYWGQGTSVTVSS
VL: DIVITQDELSNPVTSGDSVSISCRSSKSLLYKDGKTYLNWFLQRPGQSPQLLIYVVSTRASGVSDRFSGSGSGTDFTLEISRVKAEDVGVYYCQQLVEYPYTFGGGTKLEIK
notes: Chimeric monoclonal antibody, murine variable regions and human IgG1
- EC50 [2]: 0.0019 µg/mL
- binding result (Peptide 2a [3]): binds
- binding result (Pep6 [4]): binds
- EC50 [5]: 0.394 µg/mL
- binding result (Peptide 6E): no binding
- binding result (Peptide 6B [6]): binds
- binding result (Peptide 2C): binds

B3: antibody 2810 (antibody, V domains shown)
VH: B2 VH with N28S, C60Y
VL: B2 VL
- binding result (Peptide 6B [7]): binds
- binding result [8]: binds
- binding result (Peptide 2a [9]): binds
- binding result [10]: binds
- binding result (Pep6 [11]): binds

B4: antibody B-B4 (antibody, V domains shown)
VH: QVQLQQSGSELMMPGASVKISCKATGYTFSNYWIEWVKQRPGHGLEWIGEILPGTGRTIYNEKFKGKATFTADISSNTVQMQLSSLTSEDSAVYYCARRDYYGNFYYAMDYWGQGTSVTVSS
VL: DIQMTQSTSSLSASLGDRVTISCSASQGINNYLNWYQQKPDGTVELLIYYTSTLQSGVPSRFSGSGSGTDYSLTISNLEPEDIGTYYCQQYSKLPRTFGGGTKLEIK
notes: detected with anti-human IgG-Fc; afucosylated and biotinylated versions also used; also called B-B4-IgG1; MAb B-B4
- binding result (mutated CD138 Clone 5): binds
- binding result (mutated CD138 Clone 4): binds
- binding result (mutated CD138 Clone 2): binds
- binding result (mutated CD138 Clone 1): binds
- binding result (Peptide 2a [3]): binds
- binding result (Peptide 6B [6]): no binding
